# Changes are numbered by the printed parent chain.
# B1: H7K3 variant 5, K3m1 (N/V) (antibody, V domains shown)
# VH: EVQLVESGGGLVQPGGSLRLSCAASGFSLSSSYWISWVRQAPGKGLEWIGSIDSGSVGITYYATWVKGRFTISRDNSKNTLYLQMNSLRAEDTAVYYCARHGDNWALDLWGQGTLVTVSS
# VL: DIQMTQSPSTLSASVGDRVTITCRASQSIVSWLAWYQQKPGKAPKLLIYKASTLASGVPSRFSGSGSGTEFTLTISSLQPDDFATYYCQHGYIRGDLDNVFGGGTKVEIK
# B2: H7K3 variant 11, K3m7 (S/Q) (antibody, V domains shown)
# VH: B1 VH
# VL: B1 VL with V30N, S31Q
# B3: H7K3 variant 12, K3m8 (S/V) (antibody, V domains shown)
# VH: B1 VH
# VL: B1 VL with V30N, S31V
# B4: H7K3 variant 8, K3m4 (N/Q) (antibody, V domains shown)
# VH: B1 VH
# VL: B1 VL with V30Q
# B5: 4ab4ab-3 (bispecific antibody, human IgG1, kappa, L234A L235A)
# heavy 1: not shown
# heavy 2: EVQLVESGGGLVQPGGSLRLSCAASGFSLSSSYWISWVRQAPGKGLEWIGSIDSGSVGITYYATWVKGRFTISRDNSKNTLYLQMNSLRAEDTAVYYCARHGDNWALDLWGQGTLVTVLEDLKNVFPPEVAVFEPSEAEISHTQKATLVCLATGFYPDHVELSWWVNGKEVHSGVCTDPQPLKEQPALQDSRYALSSRLRVSATFWQNPRNHFRCQVQFYGLSENDEWTQDRAKPVTQIVSAEAWGRGGGGSGGGGSEVQLVESGGGLVQPGGSLRLSCAASGFSLSSSYWISWVRQAPGKGLEWIGSIDSGSVGITYYATWVKGRFTISRDNSKNTLYLQMNSLRAEDTAVYYCARHGDNWALDLWGQGTLVTVLEDLKNVFPPEVAVFEPSEAEISHTQKATLVCLATGFYPDHVELSWWVNGKEVHSGVCTDPQPLKEQPALQDSRYALSSRLRVSATFWQNPRNHFRCQVQFYGLSENDEWTQDRAKPVTQIVSAEAWGRASDKTHTCPPCPAPELLGGPSVFLFPPKPKDTLMISRTPEVTCVVVDVSHEDPEVKFNWYVDGVEVHNAKTKPREEQYNSTYRVVSVLTVLHQDWLNGKEYKCKVSNKALPAPIEKTISKAKGQPREPQVCTLPPSREEMTKNQVSLSCAVKGFYPSDIAVEWESNGQPENNYKTTPPVLDSDGSFFLVSKLTVDKSRWQQGNVFSCSVMHEALHNHYTQKSLSLSPG
# light 1: not shown
# light 2: DIQMTQSPSTLSASVGDRVTITCRASQSISSWLAWYQQKPGKAPKLLIYKASTLASGVPSRFSGSGSGTEFTLTISSLQPDDFATYYCQHGYIRGDLDNVFGGGTKVEIKPDIQNPDPAVYQLRDSKSSDKSVCLFTDFDSQTQVSQSKDSDVYITDKCVLDMRSMDFKSNSAVAWSQKSDFACANAFQNSIIPEDTFFPSPESS
# notes: also called first-generation LILRB4/CD3 bispecific antibody No. 4
# B6: 4ab3-4ab (bispecific antibody, human IgG1, kappa, L234A L235A)
# heavy 1: not shown
# heavy 2: EVQLVESGGGLVQPGGSLRLSCAASGFSLSSSYWISWVRQAPGKGLEWIGSIDSGSVGITYYATWVKGRFTISRDNSKNTLYLQMNSLRAEDTAVYYCARHGDNWALDLWGQGTLVTVLEDLKNVFPPEVAVFEPSEAEISHTQKATLVCLATGFYPDHVELSWWVNGKEVHSGVCTDPQPLKEQPALQDSRYALSSRLRVSATFWQNPRNHFRCQVQFYGLSENDEWTQDRAKPVTQIVSAEAWGRASDKTHTCPPCPAPEAAGGPSVFLFPPKPKDTLMISRTPEVTCVVVDVSHEDPEVKFNWYVDGVEVHNAKTKPREEQYNSTYRVVSVLTVLHQDWLNGKEYKCKVSNKALPAPIEKTISKAKGQPREPQVCTLPPSREEMTKNQVSLSCAVKGFYPSDIAVEWESNGQPENNYKTTPPVLDSDGSFFLVSKLTVDKSRWQQGNVFSCSVMHEALHNHYTQKSLSLSPG
# light 1: not shown
# light 2: B5 light 2
# notes: also called first-generation LILRB4/CD3 bispecific antibody No. 6
# B7: 44-3ab (bispecific antibody, human IgG1, kappa, L234A L235A)
# heavy 1: not shown
# heavy 2: EVQLVESGGGLVQPGGSLRLSCAASGFSLSSSYWISWVRQAPGKGLEWIGSIDSGSVGITYYATWVKGRFTISRDNSKNTLYLQMNSLRAEDTAVYYCARHGDNWALDLWGQGTLVTVSSASTKGPSVFPLAPSSKSTSGGTAALGCLVKDYFPEPVTVSWNSGALTSGVHTFPAVLQSSGLYSLSSVVTVPSSSLGTQTYICNVNHKPSNTKVDKRVEPKSCGGGGSGGGGSEVQLVESGGGLVQPGGSLRLSCAASGFSLSSSYWISWVRQAPGKGLEWIGSIDSGSVGITYYATWVKGRFTISRDNSKNTLYLQMNSLRAEDTAVYYCARHGDNWALDLWGQGTLVTVSSASTKGPSVFPLAPSSKSTSGGTAALGCLVKDYFPEPVTVSWNSGALTSGVHTFPAVLQSSGLYSLSSVVTVPSSSLGTQTYICNVNHKPSNTKVDKRVEPKSCDKTHTCPPCPAPEAAGGPSVFLFPPKPKDTLMISRTPEVTCVVVDVSHEDPEVKFNWYVDGVEVHNAKTKPREEQYNSTYRVVSVLTVLHQDWLNGKEYKCKVSNKALPAPIEKTISKAKGQPREPQVCTLPPSREEMTKNQVSLSCAVKGFYPSDIAVEWESNGQPENNYKTTPPVLDSDGSFFLVSKLTVDKSRWQQGNVFSCSVMHEALHNHYTQKSLSLSPG
# light 1: DIVMTQSPDSLAVSLGERATINCKSSQSLLNSRTRKNYLAWYQQKPGQPPKLLIYWASTRQSGVPDRFSGSGSGTDFTLTISSLQAEDVAVYYCTQSHTLRTFGGGTKVEIKPDIQNPDPAVYQLRDSKSSDKSVCLFTDFDSQTQVSQSKDSDVYITDKCVLDMRSMDFKSNSAVAWSQKSDFACANAFQNSIIPEDTFFPSPESS
# light 2: DIQMTQSPSTLSASVGDRVTITCRASQSISSWLAWYQQKPGKAPKLLIYKASTLASGVPSRFSGSGSGTEFTLTISSLQPDDFATYYCQHGYIRGDLDNVFGGGTKVEIKRTVAAPSVFIFPPSDEQLKSGTASVVCLLNNFYPREAKVQWKVDNALQSGNSQESVTEQDSKDSTYSLSSTLTLSKADYEKHKVYACEVTHQGLSSPVTKSFNRGEC
# notes: also called first-generation LILRB4/CD3 bispecific antibody No. 3
# B8: 43ab-4 (bispecific antibody, human IgG1, kappa, L234A L235A)
# heavy 1: not shown
# heavy 2: EVQLVESGGGLVQPGGSLRLSCAASGFSLSSSYWISWVRQAPGKGLEWIGSIDSGSVGITYYATWVKGRFTISRDNSKNTLYLQMNSLRAEDTAVYYCARHGDNWALDLWGQGTLVTVSSASTKGPSVFPLAPSSKSTSGGTAALGCLVKDYFPEPVTVSWNSGALTSGVHTFPAVLQSSGLYSLSSVVTVPSSSLGTQTYICNVNHKPSNTKVDKRVEPKSCDKTHTCPPCPAPEAAGGPSVFLFPPKPKDTLMISRTPEVTCVVVDVSHEDPEVKFNWYVDGVEVHNAKTKPREEQYNSTYRVVSVLTVLHQDWLNGKEYKCKVSNKALPAPIEKTISKAKGQPREPQVCTLPPSREEMTKNQVSLSCAVKGFYPSDIAVEWESNGQPENNYKTTPPVLDSDGSFFLVSKLTVDKSRWQQGNVFSCSVMHEALHNHYTQKSLSLSPG
# light 1: B7 light 1
# light 2: B7 light 2
# notes: also called first-generation LILRB4/CD3 bispecific antibody No. 5
# Target: T1, human LILRB4 expressed on cells (human, UniProt Q8NHJ6 22-448)
# T1 construct: whole, on cells; also called ILT3; CD85k
# Test: FACS, CHO-stable cells expressing human LILRB4
row,EC50 [pM],Binder
1,463,B1
2,455,B2
3,402,B3
4,480,B4

# Target: T2, recombinant human LILRB4 protein (Sino Biological, cat #16742-H08H) (human, UniProt Q8NHJ6 22-259)
# T2 construct: extracellular domain; also called LILRB4 recombinant protein (Sino Biological); Human LILRB4 ECD-his; not shown: his tag
# Test: SPR (Biacore 8K), LILRB4 immobilized on CM5 chip, bispecific as analyte, 1:1 model
# Procedure: (§1) Binding affinities of first-generation bispecific antibodies to recombinant CD3e-CD3d heterodimer protein (Acro Biosystems) or LILRB4 recombinant protein (Sino Biological) were measured by surface plasmon resonance using a Biacore 8K instrument. Briefly, CD3e-CD3d or LILRB4 protein was immobilized on a CM5 chip with EDC and NHS according to standard protocols. […] The chip was regenerated using 10 mM glycine pH 1.5 as the regeneration buffer. The sensorgrams for reference channel Fc1 and buffer channel were subtracted from the test sensorgrams and the experimental data was fitted by 1:1 binding model.
row,Kd [pM],Binder
1,260,B5
2,260,B6
3,230,B7
4,290,B8

# Target: T3, flag-tagged cynomolgus monkey LILRB4 expressed on CHO-K1 cells (cynomolgus monkey)
# T3 construct: whole, on cells; also called cyno LILRB4
# Test: FACS, CHO-stable cells expressing cyno LILRB4
row,EC50 [pM],Binder
1,1230,B1
2,974,B2
3,933,B3
4,989,B4

# Target: T1, human LILRB4 expressed on cells
# Test: cell-based or functional assay
"Monocyte (max %), Donor 1 [%]","Monocyte (max %), Donor 2 [%]","Monocyte (max %), Donor 3 [%]",Binder,"Monocyte killing EC50, Donor 1 [pM]","Monocyte killing EC50, Donor 2 [pM]","Monocyte killing EC50, Donor 3 [pM]","T-cell cytotoxicity, THP-1 (max %) [%]","T-cell cytotoxicity, THP-1 EC50 (estimated) [pM]","T-cell cytotoxicity, THP-1 EC50 [pM]"
55,59,54.5,B5,1.3,0.32,2.9,98.3,< 0.01,–
29,44,44,B6,0.43,0.93,1.6,98.1,< 0.01,–
39,30,0,B7,–,3.4,–,96.4,–,0.43
45,0,42,B8,0.19,–,0.084,98.7,< 0.01,–

# Target: recombinant CD3e-CD3d heterodimer protein (Acro Biosystems) (UniProt P07766 23-126; P04234 22-105)
# Test: SPR (Biacore 8K), CD3e-CD3d immobilized on CM5 chip, bispecific as analyte, 1:1 model
# Procedure: as §1
# recombinant CD3e-CD3d heterodimer protein (Acro Biosystems), sequence (P07766 23-126 limits assumed, chain 1 of 2): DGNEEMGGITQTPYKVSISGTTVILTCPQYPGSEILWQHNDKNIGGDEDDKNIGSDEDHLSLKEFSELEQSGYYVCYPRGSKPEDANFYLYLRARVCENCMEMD
# recombinant CD3e-CD3d heterodimer protein (Acro Biosystems), sequence (P04234 22-105 limits assumed, chain 2 of 2): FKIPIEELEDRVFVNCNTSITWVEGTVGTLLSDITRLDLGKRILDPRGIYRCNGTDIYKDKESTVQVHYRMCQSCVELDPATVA
row,Kd [pM],Binder
1,26800,B5
2,57300,B6
3,42100,B7
4,47000,B8

# Reference: patent publication US20230340114A1 (IMMUNE ONC THERAPEUTICS, published 2023)
